# In US20120302506A1:
# Target: Human uPA (Chemicon) (human) (UniProt P00749)
# Assay: cell-based or functional assay
# Sequence of Glutathione S-transferase (GST)-tagged maspin (GST-maspin), bacterial recombinant (P08515 whole entry): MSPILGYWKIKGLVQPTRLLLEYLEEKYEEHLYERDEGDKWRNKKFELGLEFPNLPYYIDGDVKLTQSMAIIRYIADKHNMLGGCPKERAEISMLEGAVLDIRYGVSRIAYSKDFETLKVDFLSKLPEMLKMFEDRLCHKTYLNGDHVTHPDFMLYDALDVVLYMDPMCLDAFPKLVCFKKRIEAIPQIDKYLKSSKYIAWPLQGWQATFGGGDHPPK
substance,measurement,value
"Glutathione S-transferase (GST)-tagged maspin (GST-maspin), bacterial recombinant (from UniProt P08515 1-218)",maspin-mediated adhesion of uPA-stripped MCF0A cells resupplied with exogenous uPA (800 nM) (% of GST control),154
